Measurements taken from patent US20170306031A1 (NGM BIOPHARMACEUTICALS, published 2017).
Read-outs that look alike come from different tables or passages of the source.

T1: human GFRAL expressed on cells (human, UniProt Q6UXV0 20-394)
T1 sequence: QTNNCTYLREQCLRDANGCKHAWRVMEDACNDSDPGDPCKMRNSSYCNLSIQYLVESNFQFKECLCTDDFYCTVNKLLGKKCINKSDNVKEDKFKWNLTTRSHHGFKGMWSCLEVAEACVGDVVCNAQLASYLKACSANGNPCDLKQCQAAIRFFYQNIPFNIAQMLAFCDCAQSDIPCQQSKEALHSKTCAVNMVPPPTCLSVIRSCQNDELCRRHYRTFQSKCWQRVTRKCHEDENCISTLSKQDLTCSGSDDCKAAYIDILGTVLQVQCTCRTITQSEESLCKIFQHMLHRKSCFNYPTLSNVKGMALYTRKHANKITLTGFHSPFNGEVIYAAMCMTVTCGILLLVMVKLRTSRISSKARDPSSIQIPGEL

T2: mouse GFRAL (analyte in Biacore assays) (mouse, UniProt Q6SJE0 20-349, limits assumed)
T2 construct: injected in solution over captured antibody
T2 sequence: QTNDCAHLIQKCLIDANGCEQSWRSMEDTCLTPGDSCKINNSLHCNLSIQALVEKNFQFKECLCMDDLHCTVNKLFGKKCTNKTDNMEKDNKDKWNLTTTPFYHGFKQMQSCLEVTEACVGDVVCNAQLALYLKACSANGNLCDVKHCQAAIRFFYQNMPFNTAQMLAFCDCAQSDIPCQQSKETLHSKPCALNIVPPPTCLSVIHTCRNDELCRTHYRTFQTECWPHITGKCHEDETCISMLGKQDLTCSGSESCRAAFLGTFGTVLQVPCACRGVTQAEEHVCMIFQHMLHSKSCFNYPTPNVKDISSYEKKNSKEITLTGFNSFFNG

T3: human GFRAL (analyte in Biacore assays) (human, UniProt Q6UXV0 19-351, limits assumed)
T3 construct: injected in solution over captured antibody; also called hGFRAL
T3 sequence: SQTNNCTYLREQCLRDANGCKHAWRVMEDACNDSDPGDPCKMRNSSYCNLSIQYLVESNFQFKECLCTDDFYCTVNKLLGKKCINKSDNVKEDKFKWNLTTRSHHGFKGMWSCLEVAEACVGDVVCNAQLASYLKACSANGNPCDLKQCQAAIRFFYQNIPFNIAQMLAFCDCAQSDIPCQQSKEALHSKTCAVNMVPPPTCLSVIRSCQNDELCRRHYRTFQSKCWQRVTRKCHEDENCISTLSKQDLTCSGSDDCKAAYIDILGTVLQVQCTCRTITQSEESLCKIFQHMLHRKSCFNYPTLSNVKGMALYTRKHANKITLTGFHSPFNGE

T4: mouse GFRAL expressed on cells (mouse, UniProt Q6SJE0 20-393)
T4 sequence: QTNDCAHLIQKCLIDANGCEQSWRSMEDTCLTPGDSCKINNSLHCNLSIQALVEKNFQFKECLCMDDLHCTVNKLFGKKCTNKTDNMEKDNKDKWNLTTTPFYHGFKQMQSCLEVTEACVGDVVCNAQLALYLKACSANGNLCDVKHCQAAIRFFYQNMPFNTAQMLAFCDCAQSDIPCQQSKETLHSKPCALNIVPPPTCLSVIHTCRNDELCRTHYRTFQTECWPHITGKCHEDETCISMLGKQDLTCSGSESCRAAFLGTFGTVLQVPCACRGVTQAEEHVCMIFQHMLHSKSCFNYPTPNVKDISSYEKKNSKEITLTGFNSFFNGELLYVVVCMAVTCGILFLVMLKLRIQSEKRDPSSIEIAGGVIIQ


Tests used:
[1] = molecular target: T1, human GFRAL expressed on cells; assay: cell-based or functional assay
[2] = molecular target: T2, mouse GFRAL (analyte in Biacore assays); assay: Biacore SPR, antibody captured, GFRAL injected
Procedure: (§1) In addition, the binding affinity of antibodies to human and mouse GFRAL were measured. For example, antibodies were rank ordered based on their binding affinity to human GFRAL and mouse GFRAL by low resolution KD measurement by Biacore. Briefly, an anti-mouse Fc antibody (Sigma-Aldrich, St. Louis, Mo.) was immobilized on all four flow cells of a CM5 chip using amine coupling reagents (GE Healthcare LifeSciences, Piscataway, N.J.). Purified antibodies were captured (˜100 RUs) on flow cells 2, 3 and 4 using flow cell 1 as a reference. This was followed by injection of human or mouse GFRAL (25 nM in PBS-P buffer) at a flow rate of 70 μL/m in and monitoring the binding kinetics at 25° C.
(§2) Binding affinity measurements were also made in additional Biacore based assays. For example, equilibrium dissociation constant (KD) measurements were carried out with purified antibodies to evaluate their binding to human GFRAL or mouse GFRAL. As mentioned above, anti-mouse Fc antibody (Sigma-Aldrich, St. Louis, Mo.) was immobilized on all four flow cells of a CM5 chip using amine coupling reagents (GE Healthcare LifeSciences, Piscataway, N.J.). Purified antibodies were captured (˜100 RUs) on flow cells 2, 3 and 4 using flow cell 1 as a reference. This was followed by injection of human or mouse GFRAL in PBS-P buffer) at a flow rate of 70 μL/min and the binding kinetics were evaluated at 25° C.

[3] = molecular target: T3, human GFRAL (analyte in Biacore assays); assay: Biacore SPR, antibody captured, GFRAL injected
Procedure: as §1, §2

[4] = molecular target: T1, human GFRAL expressed on cells; assay: cell-based or functional assay; remark: listed apart in the source
[5] = molecular target: T4, mouse GFRAL expressed on cells; assay: cell-based or functional assay
[6] = molecular target: T1, human GFRAL expressed on cells; assay: cell-based or functional assay; remark: listed apart in the source
[7] = molecular target: T3, human GFRAL (analyte in Biacore assays); assay: Biacore SPR, antibody captured, human GFRAL injected
Procedure: Exemplary humanized anti-GFRAL antibodies identified in Example 6 were assayed for their binding affinity to human GFRAL. Binding affinity measurements were made in Biacore based assays. For example, equilibrium dissociation constant (KD) measurements were carried out with purified antibodies to evaluate their binding to human GFRAL. Using methods described in Example II, anti-mouse Fc antibody (Sigma-Aldrich, St. Louis, Mo.) was immobilized on all four flow cells of a CM5 chip using amine coupling reagents (GE Healthcare LifeSciences, Piscataway, N.J.). Purified humanized anti-GFRAL antibodies were captured (˜100 RUs) on flow cells 2, 3 and 4 using flow cell 1 as a reference. This was followed by injection of human GFRAL in PBS-P buffer) at a flow rate of 70 μL/min and the binding kinetics were evaluated at 25° C.

| IC50, ELK1-luciferase reporter (hGFRAL/hRET) [6] [nM] | Kd [7] [nM] | Binder | further results |
| --- | --- | --- | --- |
| – | – | antibody designated 17J16 (antibody, V domains shown, mouse hybridoma monoclonal) VH: QVQLQQSGAELAKPGASVKMSCKTSGYTFTDYWIHWVKQRPGQGLEWIGYINPNSNYAEYNQKFKVKATLTADKSSSTAYLQLSRLTSEDSAVYYCARFDWNWYFHVWGAGSTVTVSS VL: DVALTQIPLTLSVTVGQPASISCKSSQSLSDSDGKTYLNWLLQKPGQSPKRLIYLVSRLGSGVPDRFTGSGSGADFTLKISRVEAEDLGVYYCWQGTHFPQTFGGGTKLEIK | IC50, ERK phosphorylation in U2OS hGFRAL/hRET cells [1]: 0.1 nM; Kd [2]: < 0.1 nM; koff [2]: 1e-05 s⁻¹; Kd [3]: < 0.1 nM; koff [3]: ~1e-05 s⁻¹; IC50, ELK1-luciferase reporter (hGFRAL/hRET) [4]: 0.666 nM; IC50, ELK1-luciferase reporter (mGFRAL/mRET) [5]: 0.407 nM |
| 3.86 | 0.074 | humanized anti-GFRAL antibody HC-375d/LC-375a (antibody, V domains shown, humanized 5F12) VH: QVQLVQSGAEVKKPGSSVKVSCKASGYTFTDYYINWVRQAPGQGLEWIGRIYPGNGNTYHNEKFKGRATLTADKSTSTAYMELSSLRSEDTAVYYCAREGLYYDYDRYFDYWGQGTLVTVSS VL: DIVMTQSPDSLAVSLGERATINCRASESVDTYGNSFMHWYQQKPGQPPKLLIYLASNLESGVPDRFSGSGSGTDFTLTISSLQAEDVAVYYCHQNNEDPPAFGGGTKVEIK | – |
| 3.11 | 0.046 | humanized anti-GFRAL antibody HC-375d/LC-375j (antibody, IgG1, V domains shown, humanized 5F12) VH: QVQLVQSGAEVKKPGSSVKVSCKASGYTFTDYYINWVRQAPGQGLEWIGRIYPGNGNTYHNEKFKGRATLTADKSTSTAYMELSSLRSEDTAVYYCAREGLYYDYDRYFDYWGQGTLVTVSS VL: DIVLTQSPLSLPVTLGQPASISCRASESVDTYGNSFMHWYQQRPGQSPRLLIYLASNLESGVPDRFSGSGSRTDFTLKISRVEAEDVGVYYCHQNNEDPPAFGGGTKVEIK | – |
| 3.28 | 0.075 | humanized anti-GFRAL antibody HC-375d/LC-375c (antibody, IgG1, V domains shown, humanized 5F12) VH: QVQLVQSGAEVKKPGSSVKVSCKASGYTFTDYYINWVRQAPGQGLEWIGRIYPGNGNTYHNEKFKGRATLTADKSTSTAYMELSSLRSEDTAVYYCAREGLYYDYDRYFDYWGQGTLVTVSS VL: DIQMTQSPSSLSASVGDRVTITCRASESVDTYGNSFMHWYQQKPGKAPKLLIYLASNLESGVPSRFSGSGSGTDFTLTISSLQPEDFATYYCHQNNEDPPAFGGGTKVEIK | – |
| 4.01 | 0.048 | humanized anti-GFRAL antibody HC-375e/LC-375j (antibody, IgG1, V domains shown, humanized 5F12) VH: QVQLVQSGAEVKKPGSSVKVSCKASGYTFTDYYINWVRQAPGQGLEWMGRIYPGNGNTYHNEKFKGRATLTADESTSTAYMELSSLRSEDTAVYYCAREGLYYDYDRYFDYWGQGTLVTVSS VL: DIVLTQSPLSLPVTLGQPASISCRASESVDTYGNSFMHWYQQRPGQSPRLLIYLASNLESGVPDRFSGSGSRTDFTLKISRVEAEDVGVYYCHQNNEDPPAFGGGTKVEIK | – |
| 7.29 | 0.06 | humanized anti-GFRAL antibody HC-375h/LC-375j (antibody, IgG1, V domains shown, humanized 5F12) VH: QVQLVQSGAEVKKPGASVKVSCKASGYTFTDYYINWVRQAPGQRLEWIARIYPGNGNTYHNEKFKGRATLTRDKSASTAYMELSSLRSEDTAVYYCAREGLYYDYDRYFDYWGQGTLVTVSS VL: DIVLTQSPLSLPVTLGQPASISCRASESVDTYGNSFMHWYQQRPGQSPRLLIYLASNLESGVPDRFSGSGSRTDFTLKISRVEAEDVGVYYCHQNNEDPPAFGGGTKVEIK | – |
| 2.79 | 0.077 | humanized anti-GFRAL antibody HC-375d/LC-375g (antibody, IgG1, V domains shown, humanized 5F12) VH: QVQLVQSGAEVKKPGSSVKVSCKASGYTFTDYYINWVRQAPGQGLEWIGRIYPGNGNTYHNEKFKGRATLTADKSTSTAYMELSSLRSEDTAVYYCAREGLYYDYDRYFDYWGQGTLVTVSS VL: DIVLTQSPDSLAVSLGERATINCRASESVDTYGNSFMHWYQQKPGQPPKLLIYLASNLESGVPDRFSGSGSRTDFTLTISSLQAEDVAVYYCHQNNEDPPAFGGGTKVEIK | – |
| 2.75 | 0.062 | humanized anti-GFRAL antibody HC-375d/LC-375i (antibody, IgG1, V domains shown, humanized 5F12) VH: QVQLVQSGAEVKKPGSSVKVSCKASGYTFTDYYINWVRQAPGQGLEWIGRIYPGNGNTYHNEKFKGRATLTADKSTSTAYMELSSLRSEDTAVYYCAREGLYYDYDRYFDYWGQGTLVTVSS VL: DVVLTQSPLSLPVTLGQPASISCRASESVDTYGNSFMHWFQQRPGQSPRLLIYLASNLESGVPDRFSGSGSGTDFTLKISRVEAEDVGVYYCHQNNEDPPAFGGGTKVEIK | – |
| 2.27 | 0.081 | humanized anti-GFRAL antibody HC-375e/LC-375g (antibody, IgG1, V domains shown, humanized 5F12) VH: QVQLVQSGAEVKKPGSSVKVSCKASGYTFTDYYINWVRQAPGQGLEWMGRIYPGNGNTYHNEKFKGRATLTADESTSTAYMELSSLRSEDTAVYYCAREGLYYDYDRYFDYWGQGTLVTVSS VL: DIVLTQSPDSLAVSLGERATINCRASESVDTYGNSFMHWYQQKPGQPPKLLIYLASNLESGVPDRFSGSGSRTDFTLTISSLQAEDVAVYYCHQNNEDPPAFGGGTKVEIK | – |
| 2.2 | 0.092 | humanized anti-GFRAL antibody HC-375e/LC-375c (antibody, IgG1, V domains shown, humanized 5F12) VH: QVQLVQSGAEVKKPGSSVKVSCKASGYTFTDYYINWVRQAPGQGLEWMGRIYPGNGNTYHNEKFKGRATLTADESTSTAYMELSSLRSEDTAVYYCAREGLYYDYDRYFDYWGQGTLVTVSS VL: DIQMTQSPSSLSASVGDRVTITCRASESVDTYGNSFMHWYQQKPGKAPKLLIYLASNLESGVPSRFSGSGSGTDFTLTISSLQPEDFATYYCHQNNEDPPAFGGGTKVEIK | – |
| 2.81 | 0.091 | humanized anti-GFRAL antibody HC-375e/LC-375a (antibody, V domains shown, humanized 5F12) VH: QVQLVQSGAEVKKPGSSVKVSCKASGYTFTDYYINWVRQAPGQGLEWMGRIYPGNGNTYHNEKFKGRATLTADESTSTAYMELSSLRSEDTAVYYCAREGLYYDYDRYFDYWGQGTLVTVSS VL: DIVMTQSPDSLAVSLGERATINCRASESVDTYGNSFMHWYQQKPGQPPKLLIYLASNLESGVPDRFSGSGSGTDFTLTISSLQAEDVAVYYCHQNNEDPPAFGGGTKVEIK | – |
